Tests used:
[1] = target: T1, rHuman Notch-1/Fc Chimera, CF (R&D Systems Cat#3647-TK) (human, UniProt P46531 19-526); experiment: ECL (MSD) multispot binding assay, antigen spotted on plate, 20 nM Fab;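 also: purified Fab incubated 1 h at 20 °C on antigen-spotted plate, bound Fab revealed with TAG detection antibody, ECL read, antigen signal divided by same-well blank, ratio ≥4 counted as hit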
T1 construct: Bought recombinant protein; Fc part of the bought chimera not given

[2] = target: T2, rHuman CD44/Fc Chimera, CF (R&D Systems Cat#3660-CD) (human, UniProt P16070 21-220); experiment: as above
T2 construct: Bought recombinant protein; Fc part of the bought chimera not given

[3] = target: T3, rHuman IGF-1 sR, (IGF-1 sR), CF (R&D Systems Cat#391-GR) (human, UniProt P08069 31-932); experiment: as above
T3 construct: Bought recombinant soluble receptor; also called insulin-like growth factor-1 soluble receptor

[4] = target: T4, rHuman P-Cadherin/Fc Chimera, CF (R&D Systems Cat#861-PC) (human, UniProt P22223 108-654); experiment: as above
T4 construct: Bought recombinant protein; Fc part of the bought chimera not given

[5] = target: T5, Recombinant Human DLL4 (R&D Systems Cat#1506-D4/CF) (human, UniProt Q9NR61 27-524); experiment: as above
T5 construct: Bought recombinant protein; also called delta-like protein 4; rHuman DLL4

[6] = target: T6, rHuman ErbB2/Fc Chimera, CF (R&D Systems Cat#1129-ER) (human, UniProt P04626 23-652); experiment: as above
T6 construct: Bought reagent; also called human epidermal growth factor 2 receptor; Fc part of the bought chimera not given

[7] = target: T7, rHuman CD44/Fc Chimera, CF (R&D Systems Cat#3660-CD) (human, UniProt P16070 21-220); experiment: as above
T7 construct: Bought reagent; Fc part of the bought chimera not given

[8] = target: T8, rHuman IGF-1 sR, CF (R&D Systems Cat#391-GR) (human, UniProt P08069 31-932); experiment: as above
T8 construct: Bought soluble receptor; also called insulin-like growth factor-1 soluble receptor

[9] = target: T9, rHuman P-Cadherin/Fc Chimera, CF (R&D Systems Cat#861-PC) (human, UniProt P22223 108-654); experiment: as above
T9 construct: Bought reagent; Fc part of the bought chimera not given

[10] = target: T10, rHuman Erythropoietin R/Fc Chimera, CF (R&D Systems Cat#963-ER) (human, UniProt P19235 25-250); experiment: as above
T10 construct: Bought reagent; also called EPO R; EPO R/Fc; Fc part of the bought chimera not given
T10 sequence (looked up): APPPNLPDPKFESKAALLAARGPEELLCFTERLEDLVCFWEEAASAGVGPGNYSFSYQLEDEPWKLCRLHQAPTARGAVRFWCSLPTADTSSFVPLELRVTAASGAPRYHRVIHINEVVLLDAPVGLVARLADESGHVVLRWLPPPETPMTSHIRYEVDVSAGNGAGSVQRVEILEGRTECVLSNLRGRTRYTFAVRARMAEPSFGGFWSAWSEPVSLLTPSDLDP

[11] = target: T11, Recombinant Human DLL4 (R&D Systems Cat#1506-D4/CF) (human, UniProt Q9NR61 27-524); experiment: as above; remark: listed apart in the source
T11 construct: Bought recombinant protein; also called delta-like protein 4; rHuman DLL4

[12] = target: T12, Recombinant Human DLL4 (R&D Systems Cat#1506-D4/CF) (human, UniProt Q9NR61 27-529); experiment: surface plasmon resonance, Fab against recombinant human DLL4; standard deviation in parentheses
T12 construct: Bought recombinant protein; also called rHuman DLL4; delta-like protein 4

B1: Fab VH3-23_IGHD2-21*01>3_IGHJ6*01 H100E/S108P/Y113G/Y111H & V2-13_IGLJ2*01 (Fab, V domains shown)
VH: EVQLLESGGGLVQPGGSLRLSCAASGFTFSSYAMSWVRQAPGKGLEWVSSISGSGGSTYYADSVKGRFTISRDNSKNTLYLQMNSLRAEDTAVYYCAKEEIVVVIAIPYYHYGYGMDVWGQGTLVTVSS
VL: SSELTQDPAVSVALGQTVRITCQGDSLRSYYASWYQQKPGQAPVLVIYGKNNRPSGIPDRFSGSSSGNTASLTITGAQAEDEADYYCNSRDSSGNHLVVFGGGTKLTVL
notes: Fab made in E. coli: VH joined to CH1 (with His and Flag tags, plasmid A) and VL to lambda CL (plasmid E); also called EPG Y111H
- ECL signal/blank ratio [1]: 1.5
- ECL signal/blank ratio [2]: 1.3
- ECL signal/blank ratio [3]: 1.2
- ECL signal/blank ratio [4]: 7.7
- ECL signal/blank ratio [5]: 1.6

B2: Fab VH3-23_IGHD2-21*01>3_IGHJ6*01 H100E/S108P/Y113G Y114H & V2-13_IGLJ2*01 (Fab, V domains shown)
VH: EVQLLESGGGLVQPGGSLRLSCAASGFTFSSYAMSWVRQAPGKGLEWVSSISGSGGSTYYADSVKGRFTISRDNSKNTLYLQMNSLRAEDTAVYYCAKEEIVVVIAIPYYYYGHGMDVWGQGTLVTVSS
VL: SSELTQDPAVSVALGQTVRITCQGDSLRSYYASWYQQKPGQAPVLVIYGKNNRPSGIPDRFSGSSSGNTASLTITGAQAEDEADYYCNSRDSSGNHLVVFGGGTKLTVL
notes: Tested as Fab made in E. coli (VH-CH1 with His and Flag tags; lambda CL); also called EPG Y114H
- ECL multispot value [6]: 12.5
- ECL multispot value [7]: 1.8
- ECL multispot value [8]: 1.4
- ECL multispot value [9]: 27
- ECL multispot value [10]: 120
- ECL multispot value [11]: 2.3

B3: Fab VH1-46_IGHD3-10*01_IGHJ4*01 & L12_IGKJ1*01 (Fab, V domains shown)
VH: QVQLVQSGAEVKKPGASVKVSCKASGYTFTSYYMHWVRQAPGQGLEWMGIINPSGGSTSYAQKFQGRVTMTRDTSTSTVYMELSSLRSEDTAVYYCAREYYYGSGSYYNDYFDYWGQGTLVTVSS
VL: not shown
notes: Germline Fab made in E. coli: VH in Plasmid A (CH1, His6 and Flag tags), kappa VL in Plasmid C (kappa CL)
- Kd [12]: 0.5 µM
- koff [12]: 0.29 s⁻¹
- kon [12]: 500000 M⁻¹ s⁻¹

B4: Fab VH6-1_IGHD3-3*01_IGHJ4*01 & V4-3_IGLJ4*01 (Fab, V domains shown)
VH: QVQLQQSGPGLVKPSQTLSLTCAISGDSVSSNSAAWNWIRQSPSRGLEWLGRTYYRSKWYNDYAVSVKSRITINPDTSKNQFSLQLNSVTPEDTAVYYCAREYYDFWSGYYTDYFDYWGQGTLVTVSS
VL: QPVLTQPTSLSASPGASARLTCTLRSGINLGSYRIFWYQQKPESPPRYLLSYYSDSSKHQGSGVPSRFSGSKDASSNAGILVISGLQSEDEADYYCMIWHSSASFVFGGGTQLIIL
notes: Germline Fab made in E. coli: VH in Plasmid A (CH1, His6 and Flag tags), lambda VL in Plasmid E (lambda CL)
- Kd [12]: 38 µM

B5: Fab VH5-51_IGHD5-18*01>3_IGHJ4*01 & V3-4_IGLJ1*01 (Fab, V domains shown)
VH: EVQLVQSGAEVKKPGESLKISCKGSGYSFTSYWIGWVRQMPGKGLEWMGIIYPGDSDTRYSPSFQGQVTISADKSISTAYLQWSSLKASDTAMYYCARRGYSYGYDYFDYWGQGTLVTVSS
VL: QTVVTQEPSFSVSPGGTVTLTCGLSSGSVSTSYYPSWYQQTPGQAPRTLIYSTNTRSSGVPDRFSGSILGNKAALTITGAQADDESDYYCVLYMGSGISYVFGTGTKVTVL
notes: as for B4
- Kd [12]: 4.8 µM

— US20120316071A1 (published 2012)
